Measured values: paper PMC5934362

Tests used:
Assay in all cases: ITC; 308 K; 50 mM HEPES pH 7.5, 0.5 mM CaCl2, 0.5 mM TCEP; TrxADocScaA variant in the cell, titrated with 28 injections of 10 uL CohScaB5; single-site model
[1] = target: TrxADocScaA V666 + V721 double mutant (Ruminococcus flavefaciens FD-1)
[2] = target: TrxADocScaA V662 + V666 double mutant (Ruminococcus flavefaciens FD-1)
[3] = target: TrxADocScaA N669A (Ruminococcus flavefaciens FD-1)
[4] = target: TrxADocScaA V662 + V666 + V721 triple mutant (Ruminococcus flavefaciens FD-1)
[5] = target: TrxADocScaA V662A (Ruminococcus flavefaciens FD-1)
[6] = target: TrxADocScaA wild type (dockerin of primary scaffoldin ScaA fused to N-terminal thioredoxin A) (Ruminococcus flavefaciens FD-1)
Sequence of TrxADocScaA wild type (dockerin of primary scaffoldin ScaA fused to N-terminal thioredoxin A) (Ruminococcus flavefaciens FD-1) (main, as listed by the source): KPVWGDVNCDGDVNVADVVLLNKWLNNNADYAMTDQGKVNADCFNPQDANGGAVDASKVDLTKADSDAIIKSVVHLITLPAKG

[7] = target: TrxADocScaA N661A (Ruminococcus flavefaciens FD-1)
[8] = target: TrxADocScaA V662 + V721 double mutant (Ruminococcus flavefaciens FD-1)
[9] = target: TrxADocScaA H722A (Ruminococcus flavefaciens FD-1)
[10] = target: TrxADocScaA V721A (Ruminococcus flavefaciens FD-1)
[11] = target: TrxADocScaA K670A (Ruminococcus flavefaciens FD-1)
[12] = target: TrxADocScaA V666A (Ruminococcus flavefaciens FD-1)

RfCohScaB5 (fifth cohesin of adaptor scaffoldin ScaB), expressed alone with a C-terminal hexa-histidine tag (domain or fragment)
Ka [1]: 2.25e+07 M⁻¹
dH [1]: -56.5 kcal/mol
stoichiometry N [1]: 1.01
Ka [2]: 1.98e+07 M⁻¹
dH [2]: -67.5 kcal/mol
stoichiometry N [2]: 0.98
Ka [3]: 3.16e+08 M⁻¹
dH [3]: -73.4 kcal/mol
stoichiometry N [3]: 1.01
Ka [4]: 291000 M⁻¹
dH [4]: -64.8 kcal/mol
stoichiometry N [4]: 1.04
Ka [5]: 4.78e+08 M⁻¹
dH [5]: -68.4 kcal/mol
stoichiometry N [5]: 1.02
Ka [6]: 4.02e+08 M⁻¹
dH [6]: -66.7 kcal/mol
stoichiometry N [6]: 1.01
Ka [7]: 2.64e+06 M⁻¹
dH [7]: -82.5 kcal/mol
stoichiometry N [7]: 0.98
Ka [8]: 6.24e+07 M⁻¹
dH [8]: -64.3 kcal/mol
stoichiometry N [8]: 1.08
Ka [9]: 2.73e+08 M⁻¹
dH [9]: -72.4 kcal/mol
stoichiometry N [9]: 1
Ka [10]: 5.1e+08 M⁻¹
dH [10]: -48.7 kcal/mol
stoichiometry N [10]: 0.95
Ka [11]: 3.67e+08 M⁻¹
dH [11]: -75.1 kcal/mol
stoichiometry N [11]: 1.02
Ka [12]: 4.07e+08 M⁻¹
dH [12]: -56.6 kcal/mol
stoichiometry N [12]: 1.02
